Among the data in publication PMC7917804 are response values, retold here.

In the assay the target is poly(A)-binding protein (PABP), P11940. Kind of assay: co-immunoprecipitation with anti-FLAG antibody, Western blot quantified with ImageJ. Conditions: chain shown with the change, HeLa cells, parent: est. 1.0, read off a plot. In general terms: Immunoblotting shows a protein as a band on a membrane.
Sequence of poly(A)-binding protein (PABP), P11940 (P11940 whole entry): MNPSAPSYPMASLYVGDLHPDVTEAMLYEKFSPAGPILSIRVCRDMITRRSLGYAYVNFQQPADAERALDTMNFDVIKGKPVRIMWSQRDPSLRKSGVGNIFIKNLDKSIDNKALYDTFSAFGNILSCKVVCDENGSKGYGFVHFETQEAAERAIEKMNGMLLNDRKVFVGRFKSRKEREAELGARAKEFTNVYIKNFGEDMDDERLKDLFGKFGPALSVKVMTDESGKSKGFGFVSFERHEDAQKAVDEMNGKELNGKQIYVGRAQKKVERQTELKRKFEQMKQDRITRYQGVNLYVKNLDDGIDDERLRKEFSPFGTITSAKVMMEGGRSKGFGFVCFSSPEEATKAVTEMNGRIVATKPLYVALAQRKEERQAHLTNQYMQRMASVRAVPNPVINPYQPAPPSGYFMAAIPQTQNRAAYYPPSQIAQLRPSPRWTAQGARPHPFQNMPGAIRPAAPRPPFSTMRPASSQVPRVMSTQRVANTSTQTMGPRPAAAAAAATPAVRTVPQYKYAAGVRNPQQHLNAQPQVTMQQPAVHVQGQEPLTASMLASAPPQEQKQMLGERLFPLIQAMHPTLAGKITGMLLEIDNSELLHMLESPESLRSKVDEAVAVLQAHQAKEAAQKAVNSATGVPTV

B1: FLAG-HA-SBP (FHS)-tagged TNRC6A-SD-WT, Q8NDV7-2 S1332A; S1346A (protein)
chain: PLHQPAMKSFLDNVMPHTTPELQKGPSPINAFSNFPIGLNSNLNVNMDMNSIKEPQSRLRKWTTVDSISVNTSLDQNSSKHGAISSGFRLEESPFVPYDFMNSSTSPAAPPGSIGDGWPRAKAPNGSSSVNWPPEFRPGEPWKGYPNIDPETDPYVTPGSVINNLSINTVREVDHLRDRNSGSSSSLNTTLPSTSAWSSIRASNYNVPLSSTAQSTSARNSDSKLTWSPGSVTNTSLAHELWKVPLPPKNITAPSRPPPGLTGQKPPLSTWDNSPLRIGGGWGNSDARYTPGSSWGESSSGRITNWLVLKNLTPQIDGSTLRTLCMQHGPLITFHLNLPHGNALVRYSSKEEVVKAQKSLHMCVLGNTTILAEFASEEEISRFFAQSQSLTPSPGWQSLGSSQSRLGSLDCSHSFSSRTDLNHWNGAGLSGTNCGDLHGTSLWGTPHYSTSLWGPPSSSDPRGISSPSPINAFLSVDHLGGGGESM
For the molecule B1, the response (three independent experiments) was 1.4.

B2: FLAG-HA-SBP (FHS)-tagged full-length TNRC6A, wild type, Q8NDV7-2 S1332A; S1346A (protein)
chain: MDADSASSSESERNITIMASGNTGGEKDGLRNSTGLGSQNKFVVGSSSNNVGHGSSTGPWGFSHGAIISTCQVSVDAPESKSESSNNRMNAWGTVSSSSNGGLNPSTLNSASNHGAWPVLENNGLALKGPVGSGSSGINIQCSTIGQMPNNQSINSKVSGGSTHGTWGSLQETCESEVSGTQKVSFSGQPQNITTEMTGPNNTTNFMTSSLPNSGSVQNNELPSSNTGAWRVSTMNHPQMQAPSGMNGTSLSHLSNGESKSGGSYGTTWGAYGSNYSGDKCSGPNGQANGDTVNATLMQPGVNGPMGTNFQVNTNKGGGVWESGAANSQSTSWGSGNGANSGGSRRGWGTPAQNTGTNLPSVEWNKLPSNQHSNDSANGNGKTFTNGWKSTEEEDQGSATSQTNEQSSVWAKTGGTVESDGSTESTGRLEEKGTGESQSRDRRKIDQHTLLQSIVNRTDLDPRVLSNSGWGQTPIKQNTAWDTETSPRGERKTDNGTEAWGSSATQTFNSGACIDKTSPNGNDTSSVSGWGDPKPALRWGDSKGSNCQGGWEDDSAATGMVKSNQWGNCKEEKAAWNDSQKNKQGWGDGQKSSQGWSVSASDNWGETSRNNHWGEANKKSSSGGSDSDRSVSGWNELGKTSSFTWGNNINPNNSSGWDESSKPTPSQGWGDPPKSNQSLGWGDSSKPVSSPDWNKQQDIVGSWGIPPATGKPPGTGWLGGPIPAPAKEEEPTGWEEPSPESIRRKMEIDDGTSAWGDPSKYNYKNVNMWNKNVPNGNSRSDQQAQVHQLLTPASAISNKEASSGSGWGEPWGEPSTPATTVDNGTSAWGKPIDSGPSWGEPIAAASSTSTWGSSSVGPQALSKSGPKSMQDGWCGDDMPLPGNRPTGWEEEEDVEIGMWNSNSSQELNSSLNWPPYTKKMSSKGLSGKKRRRERGMMKGGNKQEEAWINPFVKQFSNISFSRDSPEENVQSNKMDLSGGMLQDKRMEIDKHSLNIGDYNRTVGKGPGSRPQISKESSMERNPYFDKDGIVADESQNMQFMSSQSMKLPPSNSALPNQALGSIAGLGMQNLNSVRQNGNPSMFGVGNTAAQPRGMQQPPAQPLSSSQPNLRAQVPPPLLSPQVPVSLLKYAPNNGGLNPLFGPQQVAMLNQLSQLNQLSQISQLQRLLAQQQRAQSQRSVPSGNRPQQDQQGRPLSVQQQMMQQSRQLDPNLLVKQQTPPSQQQPLHQPAMKSFLDNVMPHTTPELQKGPSPINAFSNFPIGLNSNLNVNMDMNSIKEPQSRLRKWTTVDSISVNTSLDQNSSKHGAISSGFRLEESPFVPYDFMNSSTSPAAPPGSIGDGWPRAKAPNGSSSVNWPPEFRPGEPWKGYPNIDPETDPYVTPGSVINNLSINTVREVDHLRDRNSGSSSSLNTTLPSTSAWSSIRASNYNVPLSSTAQSTSARNSDSKLTWSPGSVTNTSLAHELWKVPLPPKNITAPSRPPPGLTGQKPPLSTWDNSPLRIGGGWGNSDARYTPGSSWGESSSGRITNWLVLKNLTPQIDGSTLRTLCMQHGPLITFHLNLPHGNALVRYSSKEEVVKAQKSLHMCVLGNTTILAEFASEEEISRFFAQSQSLTPSPGWQSLGSSQSRLGSLDCSHSFSSRTDLNHWNGAGLSGTNCGDLHGTSLWGTPHYSTSLWGPPSSSDPRGISSPSPINAFLSVDHLGGGGESM
Regarding B2, where the note is “two independent experiments”, the response is 1.7.
